Legend:
[1] = molecular target: MBP-ssTorA signal peptide (Escherichia coli) (UniProt P33225); assay: ITC; settings: cited from earlier work
[2] = molecular target: TorA signal peptide 10-26 (Escherichia coli) (UniProt P33225); assay: ITC; settings: cited from earlier work
[3] = molecular target: ssTorA-SBP signal peptide (Escherichia coli) (UniProt P33225); assay: SPR; settings: cited from earlier work
[4] = molecular target: TorD with N-terminal His-tag (E. coli) (UniProt P36662); assay: SPR; quantitative, equilibrium response against pre-protein concentration; His-tagged REMP held on a Ni-NTA chip to 500 RU, 20 µl/min, 25°C, reference surface subtracted; Scatchard plot and Langmuir 1:1 fit; 10 mM HEPES, 150 mM NaCl, 50 µM EDTA, 0.005% P20, pH 7.4

TorD, sequence (P36662 whole entry): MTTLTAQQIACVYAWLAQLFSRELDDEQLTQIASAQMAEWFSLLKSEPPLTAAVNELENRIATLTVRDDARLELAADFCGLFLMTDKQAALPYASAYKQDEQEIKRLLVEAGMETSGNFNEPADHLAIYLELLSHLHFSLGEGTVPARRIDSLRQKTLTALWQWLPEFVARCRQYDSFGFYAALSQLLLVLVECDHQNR

| Substance | Kd [4] | also measured |
| --- | --- | --- |
| TorD (from UniProt P36662) | – | Kd [1]: 0.059 µM; Kd [2]: 1.7 µM; Kd [3]: 3.8 µM |
| ssTorA(KK)-GFP (domain or fragment) | 0.54 µM | – |
| ssTorA(KKK)-GFP (domain or fragment) | 4.9 µM | – |
| ssTorA(KR)-GFP (domain or fragment) | 2.9 µM | – |
| ssTorA(RK)-GFP (domain or fragment) | 3.6 µM | – |
| ssTorA-GFP (signal sequence of TorA fused to GFP) (domain or fragment) | 0.33 µM | stoichiometry N [4]: 1 |
